The target of test [1] is T1, Human Activin A Fc (human, UniProt P03970 309-424 (pig entry)).
T1 construct: also called human Activin A-Fc fusion; human Activin A-Fc antigen; not shown: Fc part
T1 sequence: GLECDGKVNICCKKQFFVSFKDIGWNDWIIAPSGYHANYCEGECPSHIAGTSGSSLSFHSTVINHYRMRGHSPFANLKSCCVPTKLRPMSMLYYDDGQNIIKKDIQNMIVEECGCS
Put plainly: Octet BLI, IgG, avid. The method, then:
ForteBio affinity measurements were performed on an Octet HTX generally as previously described (see, e.g., Estep et al, Mabs 5(2), 270-278 (2013)). Briefly, ForteBio affinity measurements were performed by loading IgGs on-line onto AHC sensors. Sensors were equilibrated off-line in assay buffer for 30 min and then monitored on-line for 60 seconds for baseline establishment. Sensors with loaded IgGs were exposed to 100 nM antigen for 3 minutes, and afterwards were transferred to assay buffer for 3 min for off-rate measurement. All kinetics were analyzed using the 1:1 binding model.
Binding affinity and epitope binning assays were performed with a ForteBio instrument as described herein.

The target of test [2] is T2, Activin B (UniProt P09529 293-407).
T2 sequence (looked up): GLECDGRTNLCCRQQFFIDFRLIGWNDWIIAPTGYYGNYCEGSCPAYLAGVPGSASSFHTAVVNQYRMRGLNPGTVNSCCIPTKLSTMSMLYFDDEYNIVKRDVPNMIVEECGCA
Put plainly: Octet BLI, IgG, avid.

The target in test [3] is T3, BMP9 (UniProt Q9UK05 320-429).
T3 sequence (looked up): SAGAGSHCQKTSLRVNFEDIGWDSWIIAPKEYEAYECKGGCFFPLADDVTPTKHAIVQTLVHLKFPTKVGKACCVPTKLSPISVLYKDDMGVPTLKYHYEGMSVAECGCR
Briefly: Octet BLI, IgG, avid.

The target in test [4] is T4, BMP10 (UniProt O95393 317-424).
T4 sequence (looked up): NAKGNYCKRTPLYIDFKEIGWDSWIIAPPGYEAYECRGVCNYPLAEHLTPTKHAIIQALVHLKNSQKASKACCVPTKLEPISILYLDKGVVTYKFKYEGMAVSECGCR
Put plainly: Octet BLI, IgG, avid.

In test [5] the target is T5, GDF15 Fc (UniProt Q99988 197-308, limits assumed).
T5 construct: not shown: Fc part
T5 sequence (looked up): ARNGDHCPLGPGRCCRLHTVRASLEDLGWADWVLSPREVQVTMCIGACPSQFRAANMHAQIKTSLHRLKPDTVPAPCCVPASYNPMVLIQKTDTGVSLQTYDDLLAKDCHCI
Briefly: Octet BLI, IgG, avid.

The target of test [6] is T6, Human GDNF (human, UniProt P39905 78-211).
T6 sequence (looked up): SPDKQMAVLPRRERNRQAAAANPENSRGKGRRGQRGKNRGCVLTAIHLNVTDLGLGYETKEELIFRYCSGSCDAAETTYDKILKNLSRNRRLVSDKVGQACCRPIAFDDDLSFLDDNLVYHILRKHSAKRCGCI
Put plainly: Octet BLI, IgG, avid.

In test [7] the target is Human GDF8 (human, UniProt O14793 267-375). Briefly: Octet BLI, IgG, avid.
Test [8] addresses T7, Human GDF10 (human, UniProt P55107 369-478).
T7 sequence (looked up): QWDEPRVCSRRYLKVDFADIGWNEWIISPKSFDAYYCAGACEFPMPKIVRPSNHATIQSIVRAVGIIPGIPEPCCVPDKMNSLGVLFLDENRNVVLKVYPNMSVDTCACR
Briefly: Octet BLI, IgG, avid.

In test [9] the target is Human GDF11 (human, UniProt O95390 299-407). Put plainly: Octet BLI, IgG, avid.
Test [10] addresses T8, Activin A (ligand of the Activin 2B Receptor/SMAD reporter assay) (UniProt P08476 311-426).
T8 sequence (looked up): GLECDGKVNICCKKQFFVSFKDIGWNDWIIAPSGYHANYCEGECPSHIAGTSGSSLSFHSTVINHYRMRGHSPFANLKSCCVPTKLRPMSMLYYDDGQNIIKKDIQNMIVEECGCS
Put plainly: cell-based or functional assay.

For test [11], the target named is T2, Activin B. Put plainly: cell-based or functional assay.
The target of test [12] is T1, Human Activin A Fc. Put plainly: KD with 5% HSA, method not stated.
The target of test [13] is T9, Human Activin B Fc (human, UniProt P09529 293-407, limits assumed).
T9 construct: not shown: Fc part
T9 sequence (looked up): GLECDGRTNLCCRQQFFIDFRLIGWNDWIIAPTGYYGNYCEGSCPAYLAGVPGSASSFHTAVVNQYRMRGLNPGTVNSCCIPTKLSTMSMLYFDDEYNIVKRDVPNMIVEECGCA
Put plainly: KD with 5% HSA, method not stated.

In test [14] the target is T10, Human GDF-11 Fc (human, UniProt O95390 299-407, limits assumed).
T10 construct: not shown: Fc part
Put plainly: KD with 0.1% BSA, method not stated.

For test [15], the target named is T9, Human Activin B Fc. Put plainly: KD with 0.1% BSA, method not stated.
Test [16] has as its target T1, Human Activin A Fc. Put plainly: KD with 0.1% HSA, method not stated.
Test [17] deals with T10, Human GDF-11 Fc. Put plainly: KD with 0.1% HSA, method not stated.
For test [18], the target named is T9, Human Activin B Fc. Put plainly: KD with 0.1% HSA, method not stated.
Test [19] concerns the target T1, Human Activin A Fc. Put plainly: KD with 0.1% BSA, method not stated; with 0.1% BSA.
Test [20] deals with T1, Human Activin A Fc. Put plainly: KD with 0.1% BSA, method not stated.

Chain of Human GDF11 (O95390 299-407 limits assumed): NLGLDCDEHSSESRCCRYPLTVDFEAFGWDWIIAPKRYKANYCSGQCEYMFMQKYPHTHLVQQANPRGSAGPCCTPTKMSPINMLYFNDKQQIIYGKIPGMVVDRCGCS
T10 sequence (O95390 299-407 limits assumed): as above

B1: anti-Activin A antibody Clone I (IgG) (antibody, V domains shown)
VH: QVQLVQSGAEVKKPGSSVKVSCKASGGTFSNYAISWVRQAPGQGLEWMGYIIPFFGTANYAQKFQGRVTITADESTSTAYMELSSLRSEDTAVYYCARGGSGYSTSWGSSLYWGQGTLVTVSS
VL: EIVLTQSPGTLSLSPGERATLSCRASQSVSSSYLAWYQQKPGQAPRLLIYGASYRATGIPDRFSGSGSGTDFTLTISRLEPEDFAVYYCLQSGVFPYTFGGGTKVEIKR
notes: IgG format; also called Antibody I
On to B1, for which, in test [1], the affinity, expressed as Kd, was 536 pM. The binding result in test [2], in test [3], in test [4], in test [5], in test [6] and in test [7] was “no binding (tested: 100 nM antigen)” throughout. Further, the binding result in [8] and in [9] was “no binding (tested: 100 nM antigen)” throughout. Also, in test [10], the “Activin A-ActRIIB SMAD IC50 pM” value stood at 1.09 pM. In test [11], the “Activin B-ActRIIB SMAD IC50 pM” value came to 52400 pM.

B2: anti-Activin A antibody Clone B (IgG) (antibody, V domains shown)
VH: QVQLVQSGAEVKKPGASVKVSCKASGYTFIGYDMHWVRQAPGQGLEWMGVINPSSGGTNYAQKFQGRVTMTRDTSISTAYMELSRLRSDDTAVYYCARARDIAALGLGAFDYWGQGTLVTVSS
VL: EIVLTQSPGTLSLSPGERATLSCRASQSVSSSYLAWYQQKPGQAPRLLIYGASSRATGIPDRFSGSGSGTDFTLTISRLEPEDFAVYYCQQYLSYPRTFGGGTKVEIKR
notes: IgG format; also called Antibody B
With B2, the Kd is 527 pM in test [1]; 46800 pM in test [2]; 21000 pM in test [9]; 217 pM in [12]; 10000 pM in test [13]; 18900 pM in test [14]. In addition, the Kd in test [15] amounted to 3370 pM; in [16], 138 pM; in test [17] it was 18300 pM; in test [18], 2960 pM; in test [19], 138 pM. Besides, the binding result in test [3], in test [4], in [5], in [6], in test [7] and in test [8] was “no binding (tested: 100 nM antigen)” throughout.

B3: anti-Activin A antibody Clone G (IgG) (antibody, V domains shown)
VH: QVQLVQSGAEVKKPGASVKVSCKASGYTFTSYYIHWVRQAPGQGLEWMGAIYAYSGDTNYAQKLQGRVTMTTDTSTSTAYMELRSLRSDDTAVYYCARARDIAAAGLGAFDYWGQGTLVTVSS
VL: EIVLTQSPGTLSLSPGERATLSCRASQSVRSSYLAWYQQKPGQAPRLLIYGASSRATGIPDRFSGSGSGTDFTLTISRLEPEDFAVYYCQQYSNYPRTFGGGTKVEIKR
notes: IgG format; also called Antibody G
For the molecule B3, the Kd in test [1] is 680 pM. For the same molecule, the binding result in test [2], in [3], in [4], in test [5], in [6] and in [7] was “no binding (tested: 100 nM antigen)” each time. The binding result in test [8] and in test [9] was “no binding (tested: 100 nM antigen)” in each case. In test [10], the “Activin A-ActRIIB SMAD IC50 pM” value was 15.8 pM. Also, the “Activin B-ActRIIB SMAD IC50 pM” value in test [11] was > 100000 pM.

B4: anti-Activin A antibody Clone L (IgG) (antibody, V domains shown)
VH: QVQLQESGPGLVKPSETLSLTCAVSGYSISSGYYWGWIRQPPGKGLEWIGSIYHSGSTYYNPSLKSRVTISVDTSKNQFSLKLSSVTAADTAVYYCAREAGSGYWYLSVYGMDVWGQGTTVTVSS
VL: EIVLTQSPATLSVSPGERATLSCRASQSVSSNLAWYQQKPGQAPRLLIYGASTRATGIPARFSGSGSGTEFTLTISSLQSEDFAVYYCQQSDDWPWTFGGGTKVEIKR
notes: IgG format; also called Antibody L
B4: the Kd in [1] was determined as 1570 pM; in [2], 241000 pM. The binding result in test [3], in test [4], in test [5], in test [6], in test [7] and in [8] was “no binding (tested: 100 nM antigen)” in each case. In addition, the binding result in [9] was “no binding (tested: 100 nM antigen)”. Moreover, in test [10], the “Activin A-ActRIIB SMAD IC50 pM” value was determined as 200 pM. The “Activin B-ActRIIB SMAD IC50 pM” value in test [11] is > 100000 pM.

B5: anti-Activin A antibody Clone Q (IgG) (antibody, V domains shown)
VH: QVQLVQSGAEVKKPGSSVKVSCKASGGSFSPYTWSWVRQAPGQGLEWMGGIIPISGTANTAQKFQGRVTITADESTSTAYMELSSLRSEDTAVYYCARGGPLSGWRASYYYWGQGTLVTVSS
VL: not shown
notes: IgG format; also called Antibody Q
Take B5: the Kd in test [1] stood at 585 pM; in [12], 189 pM; in test [20], 128 pM; in [16] it was 156 pM. In addition, the binding result in test [2], in test [3], in [4], in [5], in test [6] and in test [7] was “no binding (tested: 100 nM antigen)” each time. Also, the binding result in test [8] and in test [9] was “no binding (tested: 100 nM antigen)” in each case.

Values taken from patent publication US20260265358A1 (BYOMASS, published 2026).
